Assay results reported in patent US20180244785A1 (MERRIMACK PHARMACEUTICALS, published 2018).
Each block holds one binder with its values, some of them ahead of it.

Tests used:
6His-Fc-FGFR1c = biological target: T1, 6His-Fc-FGFR1c (human, UniProt P11362 141-376); assay: competition ELISA, blocks 6His-Fc-FGFR1c binding to coated FGF2
T1 construct: not shown: 6His tag and Fc as named in '6His-Fc-FGFR'
T1 sequence: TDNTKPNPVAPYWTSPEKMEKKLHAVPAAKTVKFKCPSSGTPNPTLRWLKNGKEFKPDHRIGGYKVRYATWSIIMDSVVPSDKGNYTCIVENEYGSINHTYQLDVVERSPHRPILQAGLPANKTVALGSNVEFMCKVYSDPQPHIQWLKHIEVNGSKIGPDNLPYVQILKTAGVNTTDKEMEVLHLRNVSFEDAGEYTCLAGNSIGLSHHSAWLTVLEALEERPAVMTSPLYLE
Method: (§1) ELISA plates were coated with 50 ug/ml Heparin Sulfate (HSPG) (Sigma Aldrich) and incubated overnight at room temperature. Plates were then washed extensively with PBS containing 0.05% v/v Tween20 (PBST). Plates were then blocked with 2.5% BSA in PBST for one hour and washed extensively as before. 40-60 μL of FGF1 or FGF2 was then added to each well at 40 μg/ml and allowed to bind at room temperature for 2 hours. Plates were then washed extensively with PBST as before. Stock solutions of each 6His-Fc-FGFR (FGFR1-4) were prepared at 500 ng/ml in 2% v/v BSA-PBST and each antibody was prepared as a 2×-dilution series in 2% v/v BSA-PBST. Antibodies dilution series and 6His-Fc-FGFR1-4 were diluted in a 1:1 fashion and immediately added to the relative wells of the plate and allowed to bind for 2 hours at room temperature. Plates were washed extensively as before with PBST and the remaining fraction of bound 6His-Fc-FGFR was detected using a polyclonal-anti-His-6-HRP conjugated antibody (Abcam) for one hour at room temperature. After extensive washing with PBST, 50 μl of Pierce Chemiluminescent substrate (Thermo Fisher Scientific, Rockford, USA) was added and plates were measured on an Envision plate reader (Perkin Elmer). Raw data was background corrected and plotted using Prism software. […]

6His-Fc-FGFR4 = biological target: T2, 6His-Fc-FGFR4 (human, UniProt P22455 144-369); assay: competition ELISA, blocks 6His-Fc-FGFR4 binding to coated FGF2
T2 construct: not shown: 6His tag and Fc as named in '6His-Fc-FGFR'
T2 sequence: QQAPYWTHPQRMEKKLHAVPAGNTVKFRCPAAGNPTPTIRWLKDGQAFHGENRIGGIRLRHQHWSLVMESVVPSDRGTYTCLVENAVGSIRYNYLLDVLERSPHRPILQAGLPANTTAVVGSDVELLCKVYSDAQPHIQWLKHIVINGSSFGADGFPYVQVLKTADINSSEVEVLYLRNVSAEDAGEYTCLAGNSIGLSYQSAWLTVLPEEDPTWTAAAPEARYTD
Method: as §1

[1] = biological target: T3, soluble FGFR1c receptor protein (human, UniProt P11362 141-376); assay: BLI Octet RED96, antibody on anti-hIgG Fc tip
T3 sequence: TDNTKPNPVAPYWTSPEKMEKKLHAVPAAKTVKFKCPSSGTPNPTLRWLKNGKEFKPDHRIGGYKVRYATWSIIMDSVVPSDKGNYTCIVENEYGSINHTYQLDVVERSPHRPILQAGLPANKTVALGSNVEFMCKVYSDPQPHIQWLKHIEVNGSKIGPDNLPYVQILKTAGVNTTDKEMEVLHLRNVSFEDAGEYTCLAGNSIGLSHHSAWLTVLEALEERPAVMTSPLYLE
Method: (§2) Briefly, the Pall ForteBio Octet RED96 Bio-Layer Interferometry system was used to determine the specificity of anti-FGFR antibodies for FGFR1c, FGFR2c, FGFR3c, and FGFR4. The antibodies and soluble receptor proteins were prepared in PBS at a concentration of 300 nM. First, the candidate antibodies were immobilized on the surface of anti-human IgG Fc biosensor tips for 120 seconds. After immobilization, the biosensors were dipped in PBS solution for 60 seconds (baseline step) to assess assay drift, and determine loading level of antibodies. The baseline step was followed by an association step of 300 seconds wherein the binding interaction between the immobilized antibodies and soluble receptors was measured. Following the association step, the biosensors were dipped into PBS buffer for 600 seconds to measure the dissociation of the bound receptor proteins from the immobilized antibodies. Each binding response was measured and reported real time on a sensorgram trace. For data analysis, a simple 1:1 binding model was used which measures the rate of complex formation of one immobilized antibody and one soluble receptor protein.

[2] = biological target: soluble FGFR2c receptor protein (human, UniProt P21802 148-377); assay: BLI Octet RED96, antibody on anti-hIgG Fc tip
Method: as §2

[3] = biological target: T4, soluble FGFR4 receptor protein (human, UniProt P22455 144-369); assay: BLI Octet RED96, antibody on anti-hIgG Fc tip
T4 sequence: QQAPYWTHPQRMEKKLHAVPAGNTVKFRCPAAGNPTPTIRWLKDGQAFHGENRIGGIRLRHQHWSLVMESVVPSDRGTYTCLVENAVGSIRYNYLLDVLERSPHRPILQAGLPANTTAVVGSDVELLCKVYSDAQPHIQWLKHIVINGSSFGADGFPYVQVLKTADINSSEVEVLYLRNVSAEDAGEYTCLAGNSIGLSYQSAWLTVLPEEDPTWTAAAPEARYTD
Method: as §2

[4] = biological target: T5, soluble FGFR3c receptor protein (human, UniProt P22607 141-372); assay: BLI Octet RED96, antibody on anti-hIgG Fc tip
T5 sequence: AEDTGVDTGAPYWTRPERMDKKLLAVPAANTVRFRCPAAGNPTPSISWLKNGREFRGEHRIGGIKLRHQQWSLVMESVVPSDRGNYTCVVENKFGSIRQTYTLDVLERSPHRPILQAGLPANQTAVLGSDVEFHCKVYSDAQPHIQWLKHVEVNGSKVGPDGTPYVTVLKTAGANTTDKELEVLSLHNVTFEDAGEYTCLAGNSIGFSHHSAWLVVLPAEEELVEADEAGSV
Method: as §2

soluble FGFR2c receptor protein, sequence (P21802 148-377): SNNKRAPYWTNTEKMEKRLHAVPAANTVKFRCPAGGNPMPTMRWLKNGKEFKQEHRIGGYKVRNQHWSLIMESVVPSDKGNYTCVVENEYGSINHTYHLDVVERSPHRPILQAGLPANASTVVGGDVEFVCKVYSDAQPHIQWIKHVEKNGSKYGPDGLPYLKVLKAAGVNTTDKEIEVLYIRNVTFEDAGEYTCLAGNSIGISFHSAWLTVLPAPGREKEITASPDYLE

B1: Ab59 (antibody, human IgG2, kappa, V domains shown)
VH: EVQLLESGGGVVQPGRSLRLSCAASGFTFSSYAMHWVRQAPGKGLEWVAVISYDGSNKYYADSVKGRFTISRDNSKNTLSLQMNSLRVEDTAIYYCVRGAGRGYPYGPDGFDIWGQGTMVTVSS
VL: DIVMTQTPLSLSVTPGQPASISCTSSRSLLHSDGKTYVYWYVQKSGQPPQLLIYELSNRFSGVPDRFSGSGSRTDFTLKISRVEAEDVGVYYCMQYIEAPLTFGGGTKVEIKR
notes: format in the assays not spelled out
- IC50 (6His-Fc-FGFR1c): 2.22 nM
- IC50 (6His-Fc-FGFR4): ~6.86 nM

B2: Vk9 combined with the VH of Ab15 (antibody, V domains shown)
VH: EVQLLESGGGVVQPGRSLRLSCAASGFTFSSYAMHWVRQAPGKGLEWVAVISYDGSNKYYADSVKGRFTISRDNSKNTLSLQMNSLRVEDTAIYYCVRGAGRGYTYGPDGFDIWGQGTMVTVSS
VL: DIVMTQSPDSLAVSLGERATINCKSSQSLLHSDGKTYVYWYQQKPGQPPKLLIYELSNRFSGVPDRFSGSGSGTDFTLTISSLQAEDVAVYYCMQYIEAPLTFGGGTKVEIK
notes: captured on anti-human IgG Fc tips
- Kd [1]: 2.39 nM
- koff [1]: 0.000137 s⁻¹
- kon [1]: 57200 M⁻¹ s⁻¹
- Kd [2]: 7.35 nM
- koff [2]: 0.00172 s⁻¹
- kon [2]: 234000 M⁻¹ s⁻¹
- Kd [3]: 4.89 nM
- koff [3]: 0.000692 s⁻¹
- kon [3]: 142000 M⁻¹ s⁻¹
- Kd [4]: 5.43 nM
- koff [4]: 0.000749 s⁻¹
- kon [4]: 138000 M⁻¹ s⁻¹

B3: Ab43 (antibody, human IgG2, kappa, V domains shown)
VH: EVQLLESGGGVVQPGRSLRLSCAASGFTFSSYAMHWVRQAPGKGLEWVAVISYDGSNKYYADSVKGRFTISRDNSKNTLSLQMNSLRVEDTAIYYCVRGAGRGYPYGPDGFDIWGQGTMVTVSS
VL: DIVMTQTPLSLSVTPGQPASISCRSSRSLLHSDGKTYVYWYVQKSGQPPQLLIYELSNRFSGVPDRFSGSGSRTDFTLKISRVEAEDVGVYYCMQYIEAPLTFGGGTKVEIKR
notes: as for B1
- IC50 (6His-Fc-FGFR1c): 6.62 nM
- IC50 (6His-Fc-FGFR4): 10 nM

B5: Ab40 (antibody, human IgG2, kappa, V domains shown)
VH: EVQLLESGGGVVQPGRSLRLSCAASGFTFSSYAMHWVRQAPGKGLEWVAVISYDGSNKYYADSVKGRFTISRDNSKNTLSLQMNSLRVEDTAIYYCVRGAGMGLTYGPDGFDIWGQGTMVTVSS
VL: DIVMTQTPLSLSVTPGQPASISCRSSRSLLHSDGKTYVYWYVQKSGQPPQLLIYELSNRFSGVPDRFSGSGSRTDFTLKISRVEAEDVGVYYCMQYIEAPLTFGGGTKVEIKR
notes: as for B1
- IC50 (6His-Fc-FGFR1c): 4.85 nM
- IC50 (6His-Fc-FGFR4): 17.5 nM

B7: Vk10 combined with the VH of Ab15 (antibody, V domains shown)
VH: EVQLLESGGGVVQPGRSLRLSCAASGFTFSSYAMHWVRQAPGKGLEWVAVISYDGSNKYYADSVKGRFTISRDNSKNTLSLQMNSLRVEDTAIYYCVRGAGRGYTYGPDGFDIWGQGTMVTVSS
VL: DIVMTQSPDSLAVSLGERATISCTSSRSLLHSDGKTYVYWYQQKPGQPPKLLIYELSNRFSGVPDRFSGSGSRTDFTLTISSLQAEDVAVYYCMQYIEAPLTFGGGTKVEIK
notes: as for B2
- Kd [1]: 5.33 nM
- koff [1]: 0.000294 s⁻¹
- kon [1]: 55200 M⁻¹ s⁻¹
- Kd [2]: 6.49 nM
- koff [2]: 0.00142 s⁻¹
- kon [2]: 220000 M⁻¹ s⁻¹
- Kd [3]: 4.43 nM
- koff [3]: 0.000585 s⁻¹
- kon [3]: 132000 M⁻¹ s⁻¹
- Kd [4]: 5.23 nM
- koff [4]: 0.000701 s⁻¹
- kon [4]: 134000 M⁻¹ s⁻¹

Second part, the binder after the results:

- IC50 (6His-Fc-FGFR1c): 3.53 nM
- IC50 (6His-Fc-FGFR4): 9.87 nM
B4: Ab41 (antibody, human IgG2, kappa, V domains shown)
VH: EVQLLESGGGVVQPGRSLRLSCAASGFTFSSYAMHWVRQAPGKGLEWVAVISYDGSNKYYADSVKGRFTISRDNSKNTLSLQMNSLRVEDTAIYYCVRGAGLGFPYGPDGFDIWGQGTMVTVSS
VL: DIVMTQTPLSLSVTPGQPASISCRSSRSLLHSDGKTYVYWYVQKSGQPPQLLIYELSNRFSGVPDRFSGSGSRTDFTLKISRVEAEDVGVYYCMQYIEAPLTFGGGTKVEIKR
notes: as for B1

- IC50 (6His-Fc-FGFR1c): 4.67 nM
- IC50 (6His-Fc-FGFR4): 18.4 nM
B6: Ab49 (antibody, human IgG2, kappa, V domains shown)
VH: EVQLLESGGGVVQPGRSLRLSCAASGFTFSSYAMHWVRQAPGKGLEWVAVISYDGSNKYYADSVKGRFTISRDNSKNTLSLQMNSLRVEDTAIYYCVRGAGRGYPYGPDGFDIWGQGTMVTVSS
VL: DIVMTQTPLSLSVTPGQPASISCRSSRSLLHSDGKTYVYWYVQKSGQPPQLLIYELSNRFSGVPDRFSGSGSRTDFTLKISRVEAEDVGVYYCMQYIEAPLTFGGGTKVEIKR
notes: as for B1
